This data set concerns the molecule itself. Kind of data set: X-ray crystal structure at 2.15 Å, space group C2, 3 chains per asymmetric unit; homodimer seen in the crystal. How it is done: Crystals of mutant cinnamic acid decarboxylase FDC (K190E) in complex with 3-hydroxyl cinnamic acid were grown by the vapor diffusion method. Commercial screening Kit (Hampton research, Qiagen, Emerald Biosystems) was used for screening crystallization conditions. Different volume ratio of protein and reservoir were tested for crystallization. Hanging drops containing a 1:1, 1:2, or 2:1 mixture of protein (5-10 mg/ml) and crystallization buffer (10% (w/v) polyethylene glycol (PEG) 6000, 5% (w/v) 2-methyl-2,4-pantanediol (MPD), 0.1 M HEPES, pH 7.5, and 2 mM DTT) were maintained at 4° C. In particular, well diffracted crystals were grown in 7-11% (w/v) polyethylene glycol (PEG) 6000, 3% (w/v) 2-methyl-2,4-pantanediol (MPD), pH 6.5-7.5, and 2 mM DTT with 0.1% 3-hydroxyl cinnamic acid. Crystal conditions were further improved by adding 0.01M MnCl2, 0.5% (w/v) polyvinylpyrrolidone K15, 0.2M NDSB-201 or 2% (w/v) benzamidine hydrochloride as an additive.
The FDC(K190E) crystals grew in space group C2 with 3 chains per asymmetric unit. Unit cell dimensions for the crystal were a=249.51 Å, b=120.67 Å, c=158.49 Å, β=94.9°; Diffraction data were collected from single crystals mounted in a cryoloop and flash frozen in a nitrogen stream at 100 K and reduced with the HKL suite. Crystals were diffracted at 2.15 Å resolution. […]

B1: mutant cinnamic acid decarboxylase FDC (K190E) (enzyme)
chain: MRKLNPALEFRDFIQVLKDEDDLIEITEEIDPNLEVGAIMRKAYESHLPAPLFKNLKGASKDLFSILGCPAGLRSKEKGDHGRIAHHLGLDPKTTIKEIIDYLLECKEKEPLPPITVPVSSAPCKTHILSEEKIHLQSLPTPYLHVSDGGKYLQTYGMWILQTPDKKWTNWSIARGMVVDDKHITGLVIEPQHIRQIADSWAAIGKANEIPFALCFGVPPAAILVSSMPIPEGVSESDYVGAILGESVPVVKCETNDLMVPATSEMVFEGTLSLTDTHLEGPFGEMHGYVFKSQGHPCPLYTVKAMSYRDNAILPVSNPGLCTDETHTLIGSLVATEAKELAIESGLPILDAFMPYEAQALWLILKVDLKGLQALKTTPEEFCKKVGDIYFRTKVGFIVHEIILVADDIDIFNFKEVIWAYVTRHTPVADQMAFDDVTSFPLAPFVSQSSRSKTMKGGKCVTNCIFRQQYERSFDYITCNFEKGYPKGLVDKVNENWKRYGYK
notes: It was purified by the same process as FDC1: an N-terminal 6-His/SUMO tag was cleaved off by hydrolase; It was crystallised in complex with the small molecule 3-hydroxyl cinnamic acid; also called FDC1 K190E mutant; FDC mutant (K190E)
Take B1: the binding result is on record as “binds”.

The values are drawn from patent US20150337336A1 (PHYTOGENE, published 2015).
